Experimental data reported in the Human Domainome abundance scans (Beltran et al. 2025).
± gives the uncertainty stated by the source.

B1: Tumor protein 63, residues 545 to 610; numbered along this chain, Q9H3D4 (parent)
chain: TDCSIVSFLARLGCSSCLDYFTTQGLTTIYQIEHYSMDDLASLKIPEQFRHAIWKGILDHRQLHEF

Variants of: B1
Experiment: abundance fitness (aPCA) (normalised: wild type 0, dead -1); higher = more abundant; growth selection in yeast, the domain comes from the species named
Conditions: Homo sapiens

Row | Variant | abundance fitness
1 | TDCSIVSFLARLGCSSCLDYFTWQGLTTIYQIEHYSMDDLASLKIPEQFRHAIWKGILDHRQLHEF | -0.105 ± 0.036
2 | TDCSIVSFLARLGCSSCLDYFTTQGLTTIYQIEHYSMDDLASLKIPEQFRHAIWKGILHHRQLHEF | -0.024 ± 0.055
3 | TDCSIVSFLARLGCSSCLDYFTTQGLTTIYQIEHYSMDDLASLKIPEQFRHAIWKGILYHRQLHEF | -0.054 ± 0.042
4 | TDCSIVSFLARLGCQSCLDYFTTQGLTTIYQIEHYSMDDLASLKIPEQFRHAIWKGILDHRQLHEF | 0.008 ± 0.033
5 | TDCSIVSFLARLGCSTCLDYFTTQGLTTIYQIEHYSMDDLASLKIPEQFRHAIWKGILDHRQLHEF | -0.073 ± 0.03
6 | TDCSIVSFLARLGCSSCLDYFTTQGLTTIYQIEHYSMDDLASLKIPEQFAHAIWKGILDHRQLHEF | -0.092 ± 0.027
7 | TDCSIVSFLARLGCSSCLDYFTTQGLTTIYQIEHYSMADLASLKIPEQFRHAIWKGILDHRQLHEF | -0.01 ± 0.031
8 | TDCSIVSFLARLGCSSCLDYVTTQGLTTIYQIEHYSMDDLASLKIPEQFRHAIWKGILDHRQLHEF | -1 ± 0.061
9 | TDCSIVSFLARLGCSSCLDYCTTQGLTTIYQIEHYSMDDLASLKIPEQFRHAIWKGILDHRQLHEF | -1.01 ± 0.11
10 | TDCSIVSFLARPGCSSCLDYFTTQGLTTIYQIEHYSMDDLASLKIPEQFRHAIWKGILDHRQLHEF | -0.726 ± 0.056
11 | TDCSIVEFLARLGCSSCLDYFTTQGLTTIYQIEHYSMDDLASLKIPEQFRHAIWKGILDHRQLHEF | -0.024 ± 0.041
12 | HDCSIVSFLARLGCSSCLDYFTTQGLTTIYQIEHYSMDDLASLKIPEQFRHAIWKGILDHRQLHEF | -0.361 ± 0.15
13 | TDCSIVSFLARLGCSSCLDYFTTQGLTTIYQIEHYSMDDLASLKIPEQFRHAIWKGILDHRQLHPF | -0.082 ± 0.066
14 | TDCSIVSFLARLGCSSCLDYFTTQGLTTIYQIEHYSMDDLASLKIPEQFRHAIWKGILDHRQLHNF | -0.027 ± 0.068
15 | TDCSIVSFLARLGCSSCLDYFTTQGLTWIYQIEHYSMDDLASLKIPEQFRHAIWKGILDHRQLHEF | -0.04 ± 0.03
16 | TDQSIVSFLARLGCSSCLDYFTTQGLTTIYQIEHYSMDDLASLKIPEQFRHAIWKGILDHRQLHEF | -0.031 ± 0.026
17 | TDYSIVSFLARLGCSSCLDYFTTQGLTTIYQIEHYSMDDLASLKIPEQFRHAIWKGILDHRQLHEF | 0 ± 0.027
18 | TDGSIVSFLARLGCSSCLDYFTTQGLTTIYQIEHYSMDDLASLKIPEQFRHAIWKGILDHRQLHEF | -0.069 ± 0.018
19 | TDCSIVSFLARLGCSSCLDYFTTQGLTTIYQIEHYSMDDLASLKIPEQFRIAIWKGILDHRQLHEF | -0.079 ± 0.041
20 | TDCSIVSFLARLGCSSCLDYFTTQGLTTIYQIEHYSMDDLASLKIYEQFRHAIWKGILDHRQLHEF | -1.12 ± 0.47
21 | TDCSIVSFLARLGCSSCLDYFTTQGLTTIYQIEHYSMDDLASLKIQEQFRHAIWKGILDHRQLHEF | -0.387 ± 0.041

Row | Variant | abundance fitness
22 | TDCSIVSFLARLGCSSCLDYFTTQGLTTIYQIEHYSMDDLASLKIPEQFRHAIWKGISDHRQLHEF | -0.007 ± 0.022
23 | TDCSIVSFLARLGCSSCLDYFTTYGLTTIYQIEHYSMDDLASLKIPEQFRHAIWKGILDHRQLHEF | -0.121 ± 0.034
24 | TDCSIVSFLARLGCSSCLDAFTTQGLTTIYQIEHYSMDDLASLKIPEQFRHAIWKGILDHRQLHEF | -0.028 ± 0.021
25 | TDCSIVSFLARLYCSSCLDYFTTQGLTTIYQIEHYSMDDLASLKIPEQFRHAIWKGILDHRQLHEF | -0.298 ± 0.057
26 | TDCSIVSFLARLGCSSCLDYFTTQGLTTIYQIEHYQMDDLASLKIPEQFRHAIWKGILDHRQLHEF | -0.049 ± 0.044
27 | TDCSIVSFLARLGCSSCLDYFTTQGLTTIYQIEHYRMDDLASLKIPEQFRHAIWKGILDHRQLHEF | -0.071 ± 0.024
28 | TRCSIVSFLARLGCSSCLDYFTTQGLTTIYQIEHYSMDDLASLKIPEQFRHAIWKGILDHRQLHEF | -0.202 ± 0.037
29 | TDCSIVSFLAELGCSSCLDYFTTQGLTTIYQIEHYSMDDLASLKIPEQFRHAIWKGILDHRQLHEF | -0.038 ± 0.026
30 | TDCSIVSFLAFLGCSSCLDYFTTQGLTTIYQIEHYSMDDLASLKIPEQFRHAIWKGILDHRQLHEF | -0.268 ± 0.039
31 | TDCSIVSFLQRLGCSSCLDYFTTQGLTTIYQIEHYSMDDLASLKIPEQFRHAIWKGILDHRQLHEF | -0.15 ± 0.27
32 | TDCSIVSFLARLGCSSCLDYFTTQGLTTIYQIEHYSMDDLASRKIPEQFRHAIWKGILDHRQLHEF | -0.304 ± 0.025
33 | TDCSIVSFLARLGCSSCLDYFTTQGLTTIYQIEHYSMDDLASCKIPEQFRHAIWKGILDHRQLHEF | -0.171 ± 0.044
34 | TDCSIVSFLARLGCSSCLDYFTTQGLTTIYQIEHYSMDDLASLKRPEQFRHAIWKGILDHRQLHEF | -1.02 ± 0.067
35 | TDCSIVSFLARLGSSSCLDYFTTQGLTTIYQIEHYSMDDLASLKIPEQFRHAIWKGILDHRQLHEF | -0.128 ± 0.023
36 | TDCSIVSNLARLGCSSCLDYFTTQGLTTIYQIEHYSMDDLASLKIPEQFRHAIWKGILDHRQLHEF | -0.796 ± 0.069
37 | TDCSIVSFLARLGCSSCLIYFTTQGLTTIYQIEHYSMDDLASLKIPEQFRHAIWKGILDHRQLHEF | -0.067 ± 0.036
38 | TDCSIVSFLARLGCSSCLDYFTTQGLTTIYQIEHYSMDDLASLKIPEQFRHAIWKGLLDHRQLHEF | -0.025 ± 0.03
39 | TDCSIVSFLARLGCSSCLDYFTTQGLTTIYQIEHYSMDDLASLKIPEQFRHAIWKGQLDHRQLHEF | -0.611 ± 0.074
40 | TDCSIVSFGARLGCSSCLDYFTTQGLTTIYQIEHYSMDDLASLKIPEQFRHAIWKGILDHRQLHEF | -0.622 ± 0.039
41 | TDCSIVSFPARLGCSSCLDYFTTQGLTTIYQIEHYSMDDLASLKIPEQFRHAIWKGILDHRQLHEF | -0.928 ± 0.14
